Values of other authors in publication PMC4857727.

Assays:
[1] = target: Syndecan peptide (Homo sapiens) (UniProt P31431)
[2] = target: IL5R-alpha peptide (Homo sapiens) (UniProt Q01344)
Sequence of UniProt Q01344 (Q01344 21-420): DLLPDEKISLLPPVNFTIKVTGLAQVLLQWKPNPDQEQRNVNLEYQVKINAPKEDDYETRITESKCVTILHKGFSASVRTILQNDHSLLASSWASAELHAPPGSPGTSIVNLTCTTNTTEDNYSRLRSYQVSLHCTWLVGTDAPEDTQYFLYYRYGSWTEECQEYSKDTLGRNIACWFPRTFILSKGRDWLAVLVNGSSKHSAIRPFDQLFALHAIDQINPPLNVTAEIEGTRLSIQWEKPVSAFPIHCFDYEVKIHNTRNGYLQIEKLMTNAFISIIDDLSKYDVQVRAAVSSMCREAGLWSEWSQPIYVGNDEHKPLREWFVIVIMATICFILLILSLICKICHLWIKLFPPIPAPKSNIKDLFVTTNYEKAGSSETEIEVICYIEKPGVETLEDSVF

Sequence of UniProt P31431 (P31431 19-198): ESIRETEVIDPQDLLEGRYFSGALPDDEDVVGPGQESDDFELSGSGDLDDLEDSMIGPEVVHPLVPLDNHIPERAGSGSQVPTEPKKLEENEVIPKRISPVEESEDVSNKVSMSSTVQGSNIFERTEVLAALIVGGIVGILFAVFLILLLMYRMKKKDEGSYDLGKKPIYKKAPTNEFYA

In the case of Syntenin PDZ2 (from UniProt O00560), the Kd [1] is given as 2.9 µM and the Kd [2] is given as 43.8 µM.
